{
  "source": "paper PMC9583766",
  "origin": "cited, not measured here",
  "molecular_target": "plasma prekallikrein (PK) (Homo sapiens) (UniProt P03952)",
  "sequence (P03952 20-638)": "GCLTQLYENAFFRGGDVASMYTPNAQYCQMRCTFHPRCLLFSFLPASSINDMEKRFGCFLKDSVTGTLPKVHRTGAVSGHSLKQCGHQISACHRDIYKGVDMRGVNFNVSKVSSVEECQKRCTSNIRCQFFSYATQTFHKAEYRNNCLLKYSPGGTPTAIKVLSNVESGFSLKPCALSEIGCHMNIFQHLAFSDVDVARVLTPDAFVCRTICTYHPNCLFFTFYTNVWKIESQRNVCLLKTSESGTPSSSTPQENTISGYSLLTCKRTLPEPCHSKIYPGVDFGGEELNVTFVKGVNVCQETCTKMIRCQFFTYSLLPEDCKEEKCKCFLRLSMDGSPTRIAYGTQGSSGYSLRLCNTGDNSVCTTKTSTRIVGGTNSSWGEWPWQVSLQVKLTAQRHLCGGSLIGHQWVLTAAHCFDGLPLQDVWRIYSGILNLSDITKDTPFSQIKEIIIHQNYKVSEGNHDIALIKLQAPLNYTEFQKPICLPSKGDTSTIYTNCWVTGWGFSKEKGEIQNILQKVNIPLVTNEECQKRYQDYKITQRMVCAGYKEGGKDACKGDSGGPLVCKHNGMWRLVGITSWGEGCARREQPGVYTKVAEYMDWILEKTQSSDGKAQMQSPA",
  "data": [
    {"substance": "high-molecular-weight kininogen (nHK) (from UniProt P01042)", "values": [
      {"measurement": "Kd", "result": 12, "unit": "nM"}
    ]}
  ]
}
